In the assay the target is T1, Recombinant Human GFRα-1/GDNF Rα-1 Fc Chimera (human, UniProt P56159 25-429).
T1 construct: Purchased Fc chimera; It was captured on protein A in Biacore and coated on the plate in ELISA; also called GFRα1-Fc; recombinant human GFRα1-Fc chimera, carrier-free; not shown: Fc part of a purchased Fc chimera
T1 sequence (looked up): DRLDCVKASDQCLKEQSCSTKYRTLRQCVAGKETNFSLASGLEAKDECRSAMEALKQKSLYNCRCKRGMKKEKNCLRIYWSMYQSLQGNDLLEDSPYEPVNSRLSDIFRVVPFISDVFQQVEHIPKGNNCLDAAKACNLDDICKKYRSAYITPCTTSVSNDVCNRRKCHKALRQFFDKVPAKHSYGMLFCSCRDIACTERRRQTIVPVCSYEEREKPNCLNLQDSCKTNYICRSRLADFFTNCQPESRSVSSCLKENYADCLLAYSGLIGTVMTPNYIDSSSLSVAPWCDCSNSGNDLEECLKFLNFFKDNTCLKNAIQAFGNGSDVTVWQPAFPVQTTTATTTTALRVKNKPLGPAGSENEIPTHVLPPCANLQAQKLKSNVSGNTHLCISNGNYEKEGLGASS
Description: ELISA, plate-bound human GFRα1-Fc; upper end of the 95% confidence range, n = 4. How it is done: Each well of a 96-well plate (Greiner 655081 Immunobind ELISA plates) is coated with 70 μl of human GFRα1 (recombinant human GFRα1-Fc chimera, carrier-free) at 1 μg/ml in carbonate buffer, pH 9.6. If an irrelevant receptor is coated, it is an irrelevant Fc chimera and is coated at the same concentration as GFRα1. The plates are sealed and incubated at 4° C. overnight. The wells are aspirated and washed twice with washing buffer (20 mM Tris (hydroxymethyl) aminomethane, pH 7.4, 0.15 M NaCl, 0.1% Tween-20), using an automatic plate washer. The plates are blocked with 200 μl blocking buffer per well (3% Carnation Instant milk in the above washing buffer) for at least 1 hour at room temperature. Plates are washed twice with washing buffer. […]
A 50 μl aliquot of horseradish peroxidase-conjugated streptavidin (Jackson ImmunoResearch, catalog #016-030-084), diluted 1:1000 in blocking buffer, is added to each well and incubated for 20-30 minutes at room temperature. […] The absorbance of the wells is read at 490 nm on a Molecular Devices SpectraMax250 plate reader. The average absorbance for the triplicate wells for each condition are determined, and the resulting values are processed for EC₅₀ calculation with Graph Pad Prism software to provide a 95% confidence range.

The EC50 is the midpoint of the concentration-response curve.

B1: CHO-Δ31-N38Q-D95E-GDNF (SEQ ID NO: 9) (ligand)
chain: RGQRGKQRGCVLTAIHLNVTDLGLGYETKEELIFRYCSGSCDAAETTYDKILKNLSRNRRLVSEKVGQACCRPIAFDDDLSFLDDNLVYHILRKHSAKRCGCI
modifications: N-glycosylated at N49 (numbering of mature GDNF)
notes: Expressed in CHO cells; also called CHO-Δ31-N38Q-D95E-GDNFv; GDNF variant 2
As for B1, the concentration for a half-maximal effect (EC50) is 0.3 to 1.9 nM.

The record behind these values is patent US20130324474A1 (Eli Lilly, published 2013).
